According to patent US20140086936A1:
Each block holds one binder with its values, some of them ahead of it.

Columns and labels:
thrombin = assay: enzyme inhibition, selectivity profile, mixed model fit
[1] = target: T1, Recombinant purified human matriptase (amino acids 596-855) (human), Q9Y5Y6; assay: enzyme inhibition, 1 nM enzyme, Boc-Gln-Ala-Arg-AMC substrate
T1 chain: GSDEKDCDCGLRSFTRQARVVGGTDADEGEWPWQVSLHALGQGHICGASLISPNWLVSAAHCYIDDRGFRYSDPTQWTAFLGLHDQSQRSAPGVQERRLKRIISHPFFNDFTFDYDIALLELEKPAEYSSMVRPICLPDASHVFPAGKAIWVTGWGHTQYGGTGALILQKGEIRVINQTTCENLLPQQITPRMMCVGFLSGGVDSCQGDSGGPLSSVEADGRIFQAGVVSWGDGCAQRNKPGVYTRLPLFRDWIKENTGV

hepsin (human), P05981 = assay: as above
hepsin (human), P05981, sequence (P05981 45-417 limits assumed): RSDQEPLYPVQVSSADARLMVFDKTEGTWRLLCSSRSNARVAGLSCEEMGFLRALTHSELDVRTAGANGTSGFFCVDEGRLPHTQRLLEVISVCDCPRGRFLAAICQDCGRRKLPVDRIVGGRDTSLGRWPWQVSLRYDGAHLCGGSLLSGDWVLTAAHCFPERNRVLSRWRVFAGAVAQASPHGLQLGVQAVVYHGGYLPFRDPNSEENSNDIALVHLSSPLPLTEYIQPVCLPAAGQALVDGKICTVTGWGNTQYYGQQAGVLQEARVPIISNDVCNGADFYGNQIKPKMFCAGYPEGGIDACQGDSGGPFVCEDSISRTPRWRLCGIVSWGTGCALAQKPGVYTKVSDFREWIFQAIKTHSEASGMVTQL

TMPRSS11D, O60235 = target: T2, TMPRSS11D, O60235; assay: enzyme inhibition, selectivity profile, Morrison tight-binding fit
T2 chain: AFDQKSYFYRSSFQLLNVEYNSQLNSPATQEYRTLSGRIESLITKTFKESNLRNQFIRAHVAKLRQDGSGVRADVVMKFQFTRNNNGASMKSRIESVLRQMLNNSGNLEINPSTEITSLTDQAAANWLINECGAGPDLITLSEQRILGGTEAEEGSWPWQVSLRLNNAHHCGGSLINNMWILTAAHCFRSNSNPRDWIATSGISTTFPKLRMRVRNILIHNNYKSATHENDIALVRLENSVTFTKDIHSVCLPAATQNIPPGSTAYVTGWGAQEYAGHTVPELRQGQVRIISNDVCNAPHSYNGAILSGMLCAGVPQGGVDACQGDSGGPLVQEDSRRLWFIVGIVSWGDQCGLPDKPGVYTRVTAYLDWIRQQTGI

[2] = target: Bovine trypsin (bovine), P00760; assay: as above
Bovine trypsin (bovine), P00760, sequence (P00760 24-246): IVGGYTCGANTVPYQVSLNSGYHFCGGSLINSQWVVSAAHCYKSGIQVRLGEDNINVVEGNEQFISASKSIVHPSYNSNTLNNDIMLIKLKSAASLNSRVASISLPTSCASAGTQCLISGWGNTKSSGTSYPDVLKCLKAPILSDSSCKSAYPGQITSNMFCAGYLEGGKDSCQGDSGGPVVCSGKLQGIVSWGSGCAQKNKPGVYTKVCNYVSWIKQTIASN

[3] = target: T3, matriptase-2 (human), Q8IU80; assay: as above
T3 chain: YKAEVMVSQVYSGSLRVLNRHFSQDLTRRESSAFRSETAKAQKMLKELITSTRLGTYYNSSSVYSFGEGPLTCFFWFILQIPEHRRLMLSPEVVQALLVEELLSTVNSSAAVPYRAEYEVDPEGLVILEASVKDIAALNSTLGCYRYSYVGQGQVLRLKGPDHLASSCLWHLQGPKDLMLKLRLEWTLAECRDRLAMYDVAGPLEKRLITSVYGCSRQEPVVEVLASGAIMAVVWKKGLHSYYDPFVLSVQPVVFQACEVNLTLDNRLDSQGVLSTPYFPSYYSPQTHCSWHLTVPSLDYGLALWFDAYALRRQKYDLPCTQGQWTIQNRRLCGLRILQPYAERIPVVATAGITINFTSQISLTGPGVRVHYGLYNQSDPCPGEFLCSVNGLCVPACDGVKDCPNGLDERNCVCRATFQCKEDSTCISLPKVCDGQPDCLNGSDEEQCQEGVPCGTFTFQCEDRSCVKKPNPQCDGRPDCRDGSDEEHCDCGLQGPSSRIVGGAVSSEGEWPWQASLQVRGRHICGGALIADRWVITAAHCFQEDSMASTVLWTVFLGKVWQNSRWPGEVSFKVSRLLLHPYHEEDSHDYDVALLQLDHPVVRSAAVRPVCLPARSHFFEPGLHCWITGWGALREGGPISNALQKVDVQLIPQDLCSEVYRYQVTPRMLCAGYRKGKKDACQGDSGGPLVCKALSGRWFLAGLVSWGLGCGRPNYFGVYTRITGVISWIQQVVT

[4] = target: T1, Recombinant purified human matriptase …; assay: enzyme inhibition, fluorogenic substrate Boc-Gln-Ala-Arg-AMC, Morrison tight-binding fit
[5] = target: T1, Recombinant purified human matriptase …; assay: enzyme inhibition, 1 nM matriptase, 1 µM inhibitor, Boc-Gln-Ala-Arg-AMC 50 µM
[6] = target: T1, Recombinant purified human matriptase …; assay: ratio of Ki values, enzyme inhibition
[7] = target: T1, Recombinant purified human matriptase …; assay: enzyme inhibition, fluorogenic substrate Boc-Gln-Ala-Arg-AMC, mixed model fit

- Ki (thrombin): 637 nM
- IC50 [1]: 29 nM
- IC50 (hepsin (human), P05981): 540 nM
- Ki (TMPRSS11D, O60235): 8.4 nM
- Ki [2]: 0.97 nM
- Ki [3]: 3.3 nM
B1: RQAR-ketobenzothiazole (peptide)
peptide: RQAR
modifications: not checked

- Ki [4]: 4.6 nM
B2: R-Q-A-(D)R ketobenzothiazole (compound 7) (peptide)
peptide: RQAR
modifications: not checked

- Ki [4]: 9.5 nM
- percent inhibition of matriptase activity at 1 µM [5]: 25%
- change of Ki relative to compound 1 (orders of magnitude) [6]: 3
B3: RQAK-ketobenzothiazole (peptide)
peptide: RQAK
modifications: not checked

- Ki [7]: 6120 nM
B4: reduced form of RQAR-ketobenzothiazole (peptide)
peptide: RQAR
modifications: not checked
